Patent publication US20120136195A1, “DRUG DELIVERY SYSTEM OF TARGET DRUG AND METHOD OF IMPLEMENTING THE SAME” (priority 2010, published 2012)

Assay: Impact of ultrasound acoustic pressure on enzyme activity of the drug
Assay type: physicochemical
Source text: In the evaluation of ultrasound power and parameter adjustment, and their impacts on enzyme activity, in order to ascertain whether ultrasound could affect drug activity, thus evaluating correctly the benefit of the present invention, therefore in an experiment, various acoustic pressure are given, and evaluations are made for activity of drug on the magnetic particles after applying various numbers of pulses. […] From the result it can be confirmed that, the present invention is able to cause suspension of magnetic particles, while reducing as much as possible its impact on the drug carried by the magnetic particles.

recombinant tissue plasminogen activator [rtPA]
enzyme activity after applying ultrasound (acoustic pressure of 7.1 MPa (FIG. 9)): apparent loss of enzyme activity
enzyme activity after applying ultrasound (lower acoustic pressure (below 7.1 MPa, FIG. 9)): will not be affected
